Here are results for 13 proteins from publication PMC6599887, “Exploration of the TRIM Fold of MuRF1 Using EPR Reveals a Canonical Antiparallel Structure and Extended COS-Box” (Journal of Molecular Biology, 2019).

Residue numbers refer to the chain shown, from its start. Names and notes keep the numbering of the source.

Sequences and labels used below:
B1: MuRF1-HD E200C (cysteine-null background), MTSSL-labelled (domain or fragment, UniProt Q969Q1 155-328, looked up)
chain: EVAPLQSVFQGQKTELNNSISMLVAGNDRVQTIITQLEDSRRVTKCNSHQVKEELSQKFDTLYAILDEKKSELLQRITQEQEKKLSFIEALIQQYQEQLDKSTKLVETAIQSLDEPGGATFLLTAKQLIKSIVEASKGSQLGKTEQGFENMDFFTLDLEHIADALRAIDFGTDE
modifications: MTSSL spin label (R1) on cysteine 200
notes: MuRF1 (TRIM63) helical domain, residues 155-328 of UniProtKB Q969Q1; also called E200R1; not shown: His6, N-terminal, cleaved; SUMO, N-terminal, cleaved
B2: MuRF1-HD K297C (cysteine-null background), MTSSL-labelled (domain or fragment, UniProt Q969Q1 155-328, looked up)
chain: B1 chain with C46E, K143C
modifications: MTSSL spin label (R1) on cysteine 297
notes: MuRF1 (TRIM63) helical domain, residues 155-328 of UniProtKB Q969Q1; also called K297R1; not shown: His6, N-terminal, cleaved; SUMO, N-terminal, cleaved
B3: MuRF1-HD R320C (cysteine-null background), MTSSL-labelled (domain or fragment, UniProt Q969Q1 155-328, looked up)
chain: B1 chain with C46E, R166C
modifications: MTSSL spin label (R1) on cysteine 320
notes: MuRF1 (TRIM63) helical domain, residues 155-328 of UniProtKB Q969Q1; also called R320R1; E320R1 (as printed once); not shown: His6, N-terminal, cleaved; SUMO, N-terminal, cleaved
B4: MuRF1-HD E222C (cysteine-null background), MTSSL-labelled (domain or fragment, UniProt Q969Q1 155-328, looked up)
chain: B1 chain with C46E, E68C
modifications: MTSSL spin label (R1) on cysteine 222
notes: MuRF1 (TRIM63) helical domain, residues 155-328 of UniProtKB Q969Q1; also called E222R1; not shown: His6, N-terminal, cleaved; SUMO, N-terminal, cleaved
B5: MuRF1-HD doubly labelled at E192R1 and R320R1 (cysteine-null background) (domain or fragment, UniProt Q969Q1 155-328, looked up)
chain: B1 chain with E38C, C46E, R166C
modifications: MTSSL spin label (R1) on cysteines 192 and 320
notes: MuRF1 (TRIM63) helical domain, residues 155-328 of UniProtKB Q969Q1; The double mutant is told only as labels placed at E192R1 and R320R1 simultaneously; the cysteine-null background follows from the methods; also called double-labeled sample; not shown: His6, N-terminal, cleaved; SUMO, N-terminal, cleaved
B6: MuRF1-HD E313C (cysteine-null background), MTSSL-labelled (domain or fragment, UniProt Q969Q1 155-328, looked up)
chain: B1 chain with C46E, E159C
modifications: MTSSL spin label (R1) on cysteine 313
notes: MuRF1 (TRIM63) helical domain, residues 155-328 of UniProtKB Q969Q1; also called E313R1; not shown: His6, N-terminal, cleaved; SUMO, N-terminal, cleaved
B7: MuRF1-HD R230C (cysteine-null background), MTSSL-labelled (domain or fragment, UniProt Q969Q1 155-328, looked up)
chain: B1 chain with C46E, R76C
modifications: MTSSL spin label (R1) on cysteine 230
notes: MuRF1 (TRIM63) helical domain, residues 155-328 of UniProtKB Q969Q1; also called R230R1; not shown: His6, N-terminal, cleaved; SUMO, N-terminal, cleaved
B8: MuRF1-HD K212C (cysteine-null background), MTSSL-labelled (domain or fragment, UniProt Q969Q1 155-328, looked up)
chain: B1 chain with C46E, K58C
modifications: MTSSL spin label (R1) on cysteine 212
notes: MuRF1 (TRIM63) helical domain, residues 155-328 of UniProtKB Q969Q1; also called K212R1; not shown: His6, N-terminal, cleaved; SUMO, N-terminal, cleaved
B9: MuRF1-HD E243C (cysteine-null background), MTSSL-labelled (domain or fragment, UniProt Q969Q1 155-328, looked up)
chain: B1 chain with C46E, E89C
modifications: MTSSL spin label (R1) on cysteine 243
notes: MuRF1 (TRIM63) helical domain, residues 155-328 of UniProtKB Q969Q1; also called E243R1; not shown: His6, N-terminal, cleaved; SUMO, N-terminal, cleaved
B10: MuRF1-HD E192C (cysteine-null background), MTSSL-labelled (domain or fragment, UniProt Q969Q1 155-328, looked up)
chain: B1 chain with E38C, C46E
modifications: MTSSL spin label (R1) on cysteine 192
notes: MuRF1 (TRIM63) helical domain, residues 155-328 of UniProtKB Q969Q1; also called E192R1; not shown: His6, N-terminal, cleaved; SUMO, N-terminal, cleaved
B11: MuRF1-HD F163C/L276C (in cysteine-null background) (domain or fragment, UniProt Q969Q1 155-328, looked up)
chain: B1 chain with F9C, C46E, L122C
modifications: disulfide bonds between the introduced cysteines after spontaneous oxidation
notes: MuRF1 (TRIM63) helical domain, residues 155-328 of UniProtKB Q969Q1; not shown: His6, N-terminal, cleaved; SUMO, N-terminal, cleaved
B12: MuRF1-HD V184C/L253C (in cysteine-null background) (domain or fragment, UniProt Q969Q1 155-328, looked up)
chain: B1 chain with V30C, C46E, L99C
modifications: disulfide bonds between the introduced cysteines after spontaneous oxidation
notes: as for B11
B13: MuRF1-HD S202C/Q235C (in cysteine-null background) (domain or fragment, UniProt Q969Q1 155-328, looked up)
chain: B1 chain with C46E, S48C, Q81C
modifications: disulfide bonds between the introduced cysteines after spontaneous oxidation
notes: as for B11

The first data set concerns the molecule itself. Kind of data set: PELDOR (pulsed EPR, DEER); MTSSL-labelled protein, 100 to 200 uM MuRF1 dimer, deuterated Hepes pH 8.0/NaCl buffer mixed 1:1 with D8-glycerol, flash frozen; Q-band, 50 K; distances between labels across the protomers of the dimer.
As to B1, the binding result is “binds”.
For the protein B2, the binding result is reported as “binds”.
On to B3, for which the binding result was “binds”.
In the case of B4, the binding result was “binds”.
Consider B5, for which the binding result is on record as “binds”.
Take B6: the binding result is on record as “binds”.
On the same count and under the same terms, under B7 stands “binds”; under B8, “binds”.
Take B9: the binding result is recorded as “binds”.
Turning to B10, the binding result is on record as “binds”.

A further data set deals with the molecule itself. Kind of data set: cross-linking; zero-length disulfide cross-linking by spontaneous oxidation: 20 uM protein reduced in 50 mM Tris-HCl pH 8.0, 100 mM NaCl, 20 mM beta-mercaptoethanol, dialysed overnight at 4 °C into the same buffer without reducing agent; non-reducing against reducing SDS-PAGE, Coomassie staining.
As to B11, the “stoichiometry N” value turned out to be 2.
As for B12, the “stoichiometry N” value is 2.
The same measure, in the same setting: the figure for B13 is 2.

A word on the stoichiometry N: it is a count of units in the complex or per binding partner.
